In US20230050972A1 (MOMENTA PHARMACEUTICALS, published 2023):

T1: in-house generated I domain of α11β1 (human, UniProt Q9UKX5 159-349, limits assumed)
T1 construct: domain: I domain; also called human α11β1 I domain; α11β1 I Domain
T1 sequence (looked up): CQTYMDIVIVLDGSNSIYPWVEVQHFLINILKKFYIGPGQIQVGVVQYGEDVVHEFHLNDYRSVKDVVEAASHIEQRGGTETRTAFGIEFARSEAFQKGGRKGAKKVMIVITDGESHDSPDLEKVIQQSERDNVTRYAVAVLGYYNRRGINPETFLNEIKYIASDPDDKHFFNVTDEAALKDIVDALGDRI


Key:
[1] = target: T2, recombinant mouse α11β1 (mouse, UniProt P61622 23-1141; P09055 21-728, limits assumed); experiment: ELISA on recombinant mouse α11β1
T2 construct: also called murine α11β1
Experimental: (§1) 0.25 μg/mL of target antigen (recombinant human or mouse α11β1) was plated in a 96-well plate over night at 4° C. Plates were washed (PBS with 0.1% Tween-20), blocked (PBS with 2% BSA and 0.05% Tween-20) for 1 hour at room temperature and incubated with a range of antibody concentrations for 1 hour at room temperature. Subsequently, plates were washed and incubated with biotinylated anti-rabbit/mouse/human IgG in a 1:1000 dilution buffer and incubated for 1 hour at room temperature. After washing the plates, Streptavidin HRP was added at 1:200 in dilution buffer and incubated for 1 hour at room temperature. Ultra TMB ELISA substrate solution was added and the plates incubated for 5 minutes on a plate shaker. The reaction was stopped by adding stop solution to each well and plates were read at 450 nm.

[2] = target: T3, recombinant human α11β1 (human, UniProt Q9UKX5 23-1141; P05556 21-728); experiment: ELISA on recombinant human α11β1
T3 construct: Coated in ELISA; ELISA and SPR material treated as one molecule; also called HIS-tagged human α11β1; integrin alpha 11 beta 1
Experimental: as §1

[3] = target: T4, α11β1 on human myofibroblasts (MF) (human, UniProt Q9UKX5 23-1188; P05556 21-798); experiment: FACS on human myofibroblasts
T4 construct: whole, on cells
Experimental: Human Pulmonary Fibroblasts (ScienCell) were cultured in complete Fibroblast Growth Medium (ScienCell) until 80% confluent in T-150 flasks. Cells were washed and harvested using Accutase. Cells were seeded into T-150 flasks at 7,500 cells/cm² in complete FGF and cultured for 72 hours. Cells were then washed and starved in serum reduced medium for 24 hours. After starvation, cells were treated with TGFβ-1 (R&D Systems) for 72 hours. Cells were harvested using Accutase and seeded in 96-well conical bottom plates. Cells were blocked with Heat Inactived Fetal Bovine Serum (Gibco) for 30 minutes at 4° C. Cells were then incubated with anti-α11 antibodies at the doses described in each figure for 30 minutes at 4° C. A human anti-α11 antibody (Creative BioLabs) was included as a positive control as well as the appropriate IgG isotype negative controls. Cells were washed twice and incubated with PE conjugated secondary antibodies specific to the IgG class of the anti-α11 antibodies being tested for 30 minutes at 4° C. Cells were washed twice and fixed in 1% PFA for 30 minutes. Cells were acquired on a FACS Verse […]. Data were analyzed by gating on single cells and determining the geometric Mean Fluorescence Intensity (gMFI) in the PE channel for each sample.

[4] = target: T1, in-house generated I domain of α11β1; experiment: binding to isolated I domain

T4 sequence (Q9UKX5 23-1188, chain 1 of 2): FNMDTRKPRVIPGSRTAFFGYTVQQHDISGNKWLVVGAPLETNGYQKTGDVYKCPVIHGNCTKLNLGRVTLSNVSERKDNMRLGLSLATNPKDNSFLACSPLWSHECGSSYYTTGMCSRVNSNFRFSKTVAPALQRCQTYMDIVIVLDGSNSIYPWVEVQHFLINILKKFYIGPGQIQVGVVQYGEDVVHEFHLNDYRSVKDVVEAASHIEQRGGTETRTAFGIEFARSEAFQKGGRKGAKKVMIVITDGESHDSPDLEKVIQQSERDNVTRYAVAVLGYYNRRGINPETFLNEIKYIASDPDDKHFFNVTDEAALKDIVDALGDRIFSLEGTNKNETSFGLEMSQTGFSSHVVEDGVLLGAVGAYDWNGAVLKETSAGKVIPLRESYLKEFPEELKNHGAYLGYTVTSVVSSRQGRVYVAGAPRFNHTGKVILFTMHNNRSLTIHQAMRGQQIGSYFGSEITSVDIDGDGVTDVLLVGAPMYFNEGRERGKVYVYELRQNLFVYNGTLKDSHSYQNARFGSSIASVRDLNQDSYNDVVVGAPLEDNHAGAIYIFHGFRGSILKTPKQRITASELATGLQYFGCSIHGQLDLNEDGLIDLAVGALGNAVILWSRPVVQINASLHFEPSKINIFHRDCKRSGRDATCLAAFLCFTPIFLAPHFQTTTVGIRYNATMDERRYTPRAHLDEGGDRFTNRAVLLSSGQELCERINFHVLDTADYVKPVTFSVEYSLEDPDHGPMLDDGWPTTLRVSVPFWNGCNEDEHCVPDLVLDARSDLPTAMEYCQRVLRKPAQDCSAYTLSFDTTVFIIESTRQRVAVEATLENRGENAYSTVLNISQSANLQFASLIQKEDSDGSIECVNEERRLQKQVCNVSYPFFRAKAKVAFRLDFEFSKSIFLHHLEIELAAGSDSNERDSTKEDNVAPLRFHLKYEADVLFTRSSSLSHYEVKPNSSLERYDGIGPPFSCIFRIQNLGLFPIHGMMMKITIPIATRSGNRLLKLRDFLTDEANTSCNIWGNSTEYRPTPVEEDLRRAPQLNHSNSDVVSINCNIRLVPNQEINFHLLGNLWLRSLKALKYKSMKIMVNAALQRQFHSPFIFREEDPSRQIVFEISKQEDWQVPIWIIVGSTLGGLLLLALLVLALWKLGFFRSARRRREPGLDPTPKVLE
T4 sequence (P05556 21-798, chain 2 of 2): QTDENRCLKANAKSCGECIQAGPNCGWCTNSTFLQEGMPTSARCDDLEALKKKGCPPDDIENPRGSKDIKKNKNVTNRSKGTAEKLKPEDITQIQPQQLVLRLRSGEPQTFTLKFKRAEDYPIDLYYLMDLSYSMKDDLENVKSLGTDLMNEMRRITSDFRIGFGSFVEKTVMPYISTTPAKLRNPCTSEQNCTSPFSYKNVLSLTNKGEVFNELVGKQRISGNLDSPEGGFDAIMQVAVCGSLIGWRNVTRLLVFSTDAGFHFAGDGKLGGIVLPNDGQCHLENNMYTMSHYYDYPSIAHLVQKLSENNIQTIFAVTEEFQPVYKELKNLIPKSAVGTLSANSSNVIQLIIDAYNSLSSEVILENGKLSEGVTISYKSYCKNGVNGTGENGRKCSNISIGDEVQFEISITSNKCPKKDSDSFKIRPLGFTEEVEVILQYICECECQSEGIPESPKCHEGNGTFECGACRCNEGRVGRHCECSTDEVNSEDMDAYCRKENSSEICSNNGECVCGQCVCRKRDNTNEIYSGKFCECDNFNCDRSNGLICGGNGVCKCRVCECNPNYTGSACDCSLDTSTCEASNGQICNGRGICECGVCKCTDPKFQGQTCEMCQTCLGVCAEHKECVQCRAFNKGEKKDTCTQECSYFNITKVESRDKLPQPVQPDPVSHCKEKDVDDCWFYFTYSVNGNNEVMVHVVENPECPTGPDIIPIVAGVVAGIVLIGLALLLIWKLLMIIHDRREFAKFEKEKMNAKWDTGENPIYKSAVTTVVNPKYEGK
T2 sequence (P61622 23-1141 limits assumed, chain 1 of 2): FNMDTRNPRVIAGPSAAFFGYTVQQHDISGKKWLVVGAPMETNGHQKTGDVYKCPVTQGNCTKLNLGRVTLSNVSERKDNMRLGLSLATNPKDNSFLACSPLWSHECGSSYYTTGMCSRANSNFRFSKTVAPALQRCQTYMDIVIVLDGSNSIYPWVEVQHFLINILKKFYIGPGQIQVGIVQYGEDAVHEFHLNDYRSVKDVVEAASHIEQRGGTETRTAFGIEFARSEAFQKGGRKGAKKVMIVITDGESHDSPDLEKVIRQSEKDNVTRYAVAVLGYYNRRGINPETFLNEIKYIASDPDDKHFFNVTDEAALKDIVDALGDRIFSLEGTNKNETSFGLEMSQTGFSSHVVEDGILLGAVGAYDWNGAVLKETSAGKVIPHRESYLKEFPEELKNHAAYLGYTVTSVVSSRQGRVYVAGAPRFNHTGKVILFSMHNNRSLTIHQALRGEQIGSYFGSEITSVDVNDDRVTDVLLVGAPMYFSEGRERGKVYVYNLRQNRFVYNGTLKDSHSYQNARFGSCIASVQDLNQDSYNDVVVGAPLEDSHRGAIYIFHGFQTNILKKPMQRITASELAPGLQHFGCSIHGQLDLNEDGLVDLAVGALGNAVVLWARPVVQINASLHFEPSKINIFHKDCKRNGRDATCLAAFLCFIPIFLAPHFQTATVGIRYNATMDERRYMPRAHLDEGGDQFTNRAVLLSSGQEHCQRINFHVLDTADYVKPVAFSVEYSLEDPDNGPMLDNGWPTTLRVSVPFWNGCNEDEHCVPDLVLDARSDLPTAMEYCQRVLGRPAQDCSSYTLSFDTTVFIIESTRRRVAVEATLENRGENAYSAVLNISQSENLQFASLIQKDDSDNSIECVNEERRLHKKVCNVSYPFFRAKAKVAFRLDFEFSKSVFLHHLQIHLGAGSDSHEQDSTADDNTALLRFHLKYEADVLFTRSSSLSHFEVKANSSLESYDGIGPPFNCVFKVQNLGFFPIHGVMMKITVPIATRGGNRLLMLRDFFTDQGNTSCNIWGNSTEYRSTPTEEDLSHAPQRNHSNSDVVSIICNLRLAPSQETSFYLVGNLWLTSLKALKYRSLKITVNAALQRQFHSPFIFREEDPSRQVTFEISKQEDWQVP
T2 sequence (P09055 21-728 limits assumed, chain 2 of 2): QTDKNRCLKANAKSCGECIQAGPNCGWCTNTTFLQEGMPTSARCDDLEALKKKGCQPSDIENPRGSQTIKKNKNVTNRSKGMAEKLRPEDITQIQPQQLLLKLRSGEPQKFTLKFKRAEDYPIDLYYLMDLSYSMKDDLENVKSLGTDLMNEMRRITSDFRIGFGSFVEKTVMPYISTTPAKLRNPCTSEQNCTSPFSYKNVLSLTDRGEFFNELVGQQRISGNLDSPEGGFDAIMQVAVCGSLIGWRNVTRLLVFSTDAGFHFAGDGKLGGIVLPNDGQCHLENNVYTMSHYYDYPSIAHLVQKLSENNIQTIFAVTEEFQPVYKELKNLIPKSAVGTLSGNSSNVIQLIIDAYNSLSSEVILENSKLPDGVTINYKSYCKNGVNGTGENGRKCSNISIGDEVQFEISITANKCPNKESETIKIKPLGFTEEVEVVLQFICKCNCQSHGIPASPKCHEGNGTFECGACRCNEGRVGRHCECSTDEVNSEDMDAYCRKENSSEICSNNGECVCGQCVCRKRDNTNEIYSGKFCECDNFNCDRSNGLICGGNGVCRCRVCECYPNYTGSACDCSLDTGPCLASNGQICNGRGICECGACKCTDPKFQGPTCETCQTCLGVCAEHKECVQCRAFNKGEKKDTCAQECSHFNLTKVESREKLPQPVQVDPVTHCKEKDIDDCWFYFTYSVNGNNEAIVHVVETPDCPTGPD

binding result [1] | binding result [2] | binding result [3] | binding result [4] | Binder
binds | binds | binds | no binding | A11B1_16G7 (antibody, V domains shown, recombinant rabbit IgG, full chains) VH: QEQLVESGGDLVKPGASLTLTCTASGFSFNKNYWMCWVRQAPGKGLEWIGCIYNGDGNTYYASWVNGRFTISKTSSTTVTLQMTSLTVADTAIYFCARLLNMWGPGTLVTVSS VL: DIVMTQTPASVEAAVGGTVTIKCQASESIGNALAWYQQKPGQPPKLLIYTAATLASGVPSRFSGSGSGTEFTLTISGVQCDDAATYYCQSYYFTSVSSYGNAFGGGTEVVVKG
binds | binds | binds | no binding | 6-O17 (antibody, V domains shown, mouse hybridoma IgG) VH: QVQLQQPGAELVKPGASVKLSCKASGYTFTSYWMHWIKQRPGQGLEWIGEINPSNGGSNYNEKFKSKATLTVDKSSSTAYMQLSSLTSEDSAVYHCKSRGYWGQGTTLTVSS VL: not shown
binds | binds | binds | no binding | 7-H14 (antibody, V domains shown, mouse hybridoma IgG) VH: QVQLQQPGAELVRPGASVKLSCKPSGYTFTSYWMNWVKQRPGQGLEWIGMIDPSDSETHYNQMFKDKATLTVDKSSNTAYMQLSSLTSEDSAVYYCAQIYYAYDKAYWGQGTLVTVSA VL: DIVMSQSPSSLAVSVGEKVTMSCKSSQSLLYSSHQKNYLAWYQQKPGQSPKLLIYWASTRESGVPDRFTGSGSGTDFSLTISSVKAEDLAVYYCQEYYSWTFGGGTKLEIK
no binding | binds | binds | no binding | A11B1_6G4 (antibody, V domains shown, recombinant rabbit IgG, full chains) VH: QQQLEESGGGLVKPGGTLTLTCKASGVALNPYYYMCWVRQAPGKGLEWIACVDADSSGSTYYASWAKGRFTISKTSSTTVTLKMTSLTAADTATYFCARESVDYSSVGIGYVHGTDGLWGPGTLVTVSS VL: DIVVTQTPSSVSAAVGGTVTIKCQASQSISNYFSWYQQKPGQPPKLLIYRASTLASGVPSRFKGSGSGTEFTLTISDLECADAATYYCQCTYGRSNSNFFYGFGGGTEVVVKG
no binding | binds | binds | no binding | A11B1_4E1 (antibody, V domains shown, recombinant rabbit IgG, full chains) VH: QSLEESGGDLVKPGTSLTLSCTASGFSFGSYYYMCWVRQAPGKGLEWIACIDVGSSGDTYYASWVNGRFTISKTSSTTVTLQMTSLTAADTATYFCARDDTAAGGFGNLELWGPGTLVTVSS VL: AFELTQTPSSVSEPVGGTVTIKCQASQSIYSYFSWYQQKPGQPPKRLIYQASTLASGVPSRFKGSGSGTDFTLTISDLECADAATYYCQNNYGRGSGSYFFGFGGGTEVVVKG
no binding | binds | binds | no binding | 7D8B10 (antibody, V domains shown, rat hybridoma mAb) VH: EVKLEESGGGLVQPGMSVKLSCATSGFIFSDYWMEWVRQAPGKGLEWVAEIRNKANNYATYYGKSMKGRFTISRDDSKSIVYLQVNSIRSEDTAIYYCAPNFDYWGQGVMVTVSS VL: DVVLTQTPPTLSATIGQSVSISCRSSQSLLHSTGNTYLNWLLQRPGQPPQLLIYLVSRLESGVPNRFSASGSGTDFTLKISGIEAEDLGVYYCVQSSHTPYTFGTGTKLELK
no binding | binds | binds | no binding | A11B1_3B1 (antibody, V domains shown, recombinant rabbit IgG, full chains) VH: QEQLEESGGGLVKPEGSLTLTCKASGFDLSSGYDMCWVRQAPGKGLEWIACIYADYSGSTYYASWVNGRFTISSSTSLNTVDLKMTSLTAADTATYFCARGATGNGGYGYYFNLWGPGTLVTVSS VL: DIVMTQTPASVSEPVGGTVTIKCQASQNINSGLAWYQQKPGQPPKLLIYKASTLASGVSSRFKGSGSGTEFTLTISDLECADAATYYCQTYYYSSSSSDNAFGGGTEVVVKG
no binding | binds | binds | no binding | A11B1_5D7 (antibody, V domains shown, recombinant rabbit IgG, full chains) VH: QEQLVESGGGLVQPEGSLTLTCKASGFDFSSNAMCWVRQAPGKGLEWIACIYNGDGSTYYASWVNGRFTISKTSSTTVTLQMTSLTAADTATYFCARGLSNWNRDNLWGPGTLVTVSS VL: AQVLTQTPSSVSAAVGGTATINCQASQSLYSPKNLAWYQQTPGQPPKLLIYSASKLASGVPSRFKGSGSGTQFTLTISGVQCDDAAIYYCQGEFSCTTAACFAFGGGTEVVVKG
no binding | binds | binds | no binding | A11B1_6F9 (antibody, V domains shown, recombinant rabbit IgG, full chains) VH: QSLEESGGDLVKPGASLTLTCTASGSSFSSTYWNCWVRQAPGKGLEWIACINAGSGTTYYASWAKGRFTVSKTSSTTVTLQMTSLTAADTATYFCTRDSDGRFSSGYYFNLWGPGTLVTVSS VL: AQVLTQTASPVSAAVGGTVTINCQSSQSVYDNNWLAWYQQKPGQPPKLLIDDASKLTSGVSSRFKGSGSGTQFTLTISGVQCDDAATYYCQGAYYSSGWYWAFGGGTEVVVKG
no binding | binds | binds | no binding | A11B1_5A7 (antibody, V domains shown, recombinant rabbit IgG, full chains) VH: QSLEESGGGLVQPEGSLTLACTASGFSFSSYYYICWVRQAPGTGLEWIGCINTGSDDTHYASWLKGRFTFSKASSTTLTLQMTSLTAADTATYFCARSSGSSDDAYDLWGPGTLVTVSS VL: DVVMTQTPASVSEPVGGAVTIKCQASQSIGSNLAWYQHKPGQPPKLLIYFASSLASGVSSRFKGGRSGTQFTLTISDLECADAATYYCHCTYYPLSYVTFGGGTEVVVKG
no binding | binds | binds | no binding | A11B1_6C7 (antibody, V domains shown, recombinant rabbit IgG, full chains) VH: QQQLEESGGGLVKPGGTLTLTCKASGIDFSSYYYMCWVRQAPGKGLELIVCIYTSSGGTWYASWVNGRLTISRSTSLNTVDLKMTSLTAADTATYFCARGVYSGSSDYPTRLDLWGQGTLVTVSL VL: AIEMTQSPPSLSASVGETVRIRCLASEDIYSGISWYQQKPEKPPTLLISGASNLESGVPPRFSGGGSGTDYTLTIGGVQAEDVATYYCLGGYSFSSTGLTFGAGTKVEIKR
